According to US20240167012:

What was measured:
[1] = target: T1, gluten immunogenic peptide 33-mer from α-gliadin
T1 chain: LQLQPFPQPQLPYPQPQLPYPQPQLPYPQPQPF

[2] = target: T2, gluten immunogenic peptide 26-mer from γ-gliadin
T2 chain: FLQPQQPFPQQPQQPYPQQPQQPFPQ

[3] = target: bovine serum albumin, P02769
bovine serum albumin, P02769, sequence (P02769 25-607): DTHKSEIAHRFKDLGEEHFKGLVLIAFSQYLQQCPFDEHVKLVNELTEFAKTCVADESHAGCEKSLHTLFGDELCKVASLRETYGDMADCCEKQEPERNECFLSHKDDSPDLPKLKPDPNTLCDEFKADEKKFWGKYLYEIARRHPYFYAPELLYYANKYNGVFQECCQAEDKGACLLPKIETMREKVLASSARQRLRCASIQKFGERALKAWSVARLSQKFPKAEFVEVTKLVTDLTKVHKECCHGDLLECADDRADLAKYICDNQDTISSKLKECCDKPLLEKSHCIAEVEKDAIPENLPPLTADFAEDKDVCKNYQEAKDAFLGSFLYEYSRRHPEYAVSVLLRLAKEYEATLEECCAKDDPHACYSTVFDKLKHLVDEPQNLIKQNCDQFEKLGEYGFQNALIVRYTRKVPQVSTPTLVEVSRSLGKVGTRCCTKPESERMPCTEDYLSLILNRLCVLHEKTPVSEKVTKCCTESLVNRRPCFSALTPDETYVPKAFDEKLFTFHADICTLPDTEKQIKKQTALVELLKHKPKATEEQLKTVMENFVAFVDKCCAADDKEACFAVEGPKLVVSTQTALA

B1: aspartic protease Rhodotorulapepsin (protein)
chain: SLTSYQNDNLWAGKITIGSPAQSFIMDFDTGSSDLWVPSSACSGSGCGTHARYTATSSSTSKAVTGKTLNVQYGDGSTASGPVYSDSVTVGGLTATGQTFGTATTLTGNFGSSPSDGLVGMAYPALSQLGVPPFFNTLWSEGRVAANSFSFRLATQNSAASELYLGGLNSAKYVAGTTGYTPVISQTYWAINTNVAVNGQAVSGLGTLAAIADTGTTLIVVPTADAQTFWASVPGAAPYSGGGGYYTFPCNQAPKVTFQFPGSLTKWATPYLNLGTVSYGSNQCVGAIVGQDAGLNAWILGDSFLKGVYTTFDFANNRVGFSKLA
hydrolysis of the 33-mer, RP-HPLC (3 h, 37° C.) [1]: the optimal pH value for the hydrolysis reaction of the aspartic protease Rhodotorulapepsin on gluten immunogenic 33-mer is at pH 5.0
hydrolysis of gliadin 7.5 mg/ml, SDS-PAGE (pH 3.0, 3 h) (gliadin): even only 250 µg/ml of aspartic protease Rhodotorulapepsin was included in the enzyme mixture, gliadin was completely hydrolyzed
hydrolysis of gliadin at pH 2.5 to 7.0, R5 ELISA of residual gliadin (gliadin): the maximum activity of the aspartic protease Rhodotorulapepsin on gliadin was at pH 2.5
hydrolysis of gliadin, SDS-PAGE (gliadin): gliadin had been hydrolyzed by the aspartic acid protease Rhodotorulapepsin after 0.5 hours of reaction under all of the three pH conditions of pH2.5, pH3.0, and pH5.0
hydrolysis of gliadin, SDS-PAGE of residual gliadin (pH 3.0, 37° C., enzyme:gliadin 1:500) (gliadin): after reaction for 30 minutes, more than 90% of gliadin has been hydrolyzed
relative activity to hydrolyze gliadin, ELISA of residual gliadin (pH 2.5, 1.5 h, pepsin 1 mg/ml plus Rhodotorulapepsin 0.05 mg/ml) (gliadin): the relative activity thereof is increased by 54% after adding the aspartic protease Rhodotorulapepsin
hydrolysis of the 26-mer, RP-HPLC (3 h, 37° C.) [2]: the optimal pH value for the hydrolysis reaction of the aspartic protease Rhodotorulapepsin on gluten immunogenic 26-mer is at pH 3.0
relative proteolytic activity on BSA at different pH (A280 after TCA) [3]: the maximum proteolytic activity of the aspartic protease Rhodotorulapepsin was found at pH 2.5
relative proteolytic activity on BSA at different temperatures (A280 after TCA) [3]: the aspartic protease Rhodotorulapepsin still has relative activity of 93% at 40 °C
